Measurements published in paper PMC3866193.
Values belong to the substance of their own block, whether it stands above or below them.

Assays:
[1] = biological target: FAM (5,6-carboxyfluorescein)-labeled GluA2 amino terminal domain; assay: AUC; FDS-SV, dilution series of FAM-GluA2 ATD at labeling ratio 1.05 (Figure 4C/D); 20°C, pH 7.5, 0.1 mg/mL BSA; monomer-dimer model; dimer to monomers
[2] = biological target: FAM (5,6-carboxyfluorescein)-labeled GluA2 amino terminal domain; assay: AUC; FDS-SV, dilution series of FAM-GluA2 ATD at labeling ratio 2.26 (Figure 4E/F); 20°C, pH 7.5, 0.1 mg/mL BSA; monomer-dimer model; dimer to monomers
[3] = biological target: FAM (5,6-carboxyfluorescein)-labeled GluA2 amino terminal domain; assay: AUC; FDS-SV, dilution series of FAM-GluA2 ATD at labeling ratio 0.68 (Figure 4A/B), down to very low concentrations; 20°C, pH 7.5, 0.1 mg/mL BSA; monomer-dimer model; dimer to monomers
[4] = biological target: FAM (5,6-carboxyfluorescein)-labeled GluA2 amino terminal domain; assay: AUC; FDS-SV, dilution series of FAM-GluA2 ATD at labeling ratio 1.32, single-component fit excluding the two lowest concentrations and freely adjusting the s-values (Figure 5A, thin blue line); dimer to monomers
[5] = biological target: FAM (5,6-carboxyfluorescein)-labeled GluA2 amino terminal domain; assay: AUC; fluorescence-detected sedimentation velocity (FDS-SV), dilution series of labeled protein (Figure 3); 50,000 rpm, 20°C; 20 mM Na phosphate pH 7.5, 150 mM NaCl, 1 mM EDTA, 0.1 mg/mL BSA carrier; sw isotherm fitted with a monomer-dimer model; dimer to monomers
[6] = biological target: Alexa Fluor 568-labeled GluA2 amino terminal domain; assay: FRET or BRET; kinetic FRET in a spectrofluorometer, 20°C, excitation 495 nm, emission 603 nm; 50 nM donor-labeled and 50 nM AF568-labeled GluA2 ATD pre-equilibrated (30 min DL488, 60 min FAM), then 1 µM unlabeled GluA2 ATD added; decay fitted with exponential functions
[7] = biological target: FAM (5,6-carboxyfluorescein)-labeled GluA2 amino terminal domain; assay: AUC; FDS-SV, dilution series of FAM-GluA2 ATD at labeling ratio 1.32 extended to lower concentrations (Figure 5); all fits with s-values constrained to those of Dylight488-GluA2 ATD: single-component fit, and three-component fit with populations of different affinity; dimer to monomers
[8] = biological target: Dylight488-labeled GluA2 amino terminal domain; assay: AUC; FDS-SV, titration series: constant low concentration of labeled protein (1 nM for FAM-GluA2 ATD) with unlabeled GluA2 ATD at a range of concentrations (Figure S1); 20°C, pH 7.5, 0.1 mg/mL BSA; sw isotherm, monomer-dimer model; dimer to monomers
[9] = biological target: EGFP-GluA2 ATD fusion protein; assay: as above
Sequence of EGFP-GluA2 ATD fusion protein (P23819 25-404): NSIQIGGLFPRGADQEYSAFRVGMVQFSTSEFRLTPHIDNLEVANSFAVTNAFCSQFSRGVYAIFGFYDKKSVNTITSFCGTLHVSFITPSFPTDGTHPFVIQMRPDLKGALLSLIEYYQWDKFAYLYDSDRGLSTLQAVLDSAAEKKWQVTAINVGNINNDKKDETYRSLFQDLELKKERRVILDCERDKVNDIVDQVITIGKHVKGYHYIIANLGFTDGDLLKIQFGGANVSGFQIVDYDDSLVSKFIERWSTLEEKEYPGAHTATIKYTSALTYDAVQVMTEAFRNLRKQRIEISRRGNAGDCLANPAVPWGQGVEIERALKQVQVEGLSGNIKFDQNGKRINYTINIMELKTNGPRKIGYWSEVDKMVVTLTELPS

[10] = biological target: FAM (5,6-carboxyfluorescein)-labeled GluA2 amino terminal domain; assay: as above
[11] = biological target: GluA2 ATD ATD (Rattus norvegicus) (UniProt P19491); assay: sedimentation velocity AUC (far-UV absorbance); details: cited from earlier work
[12] = biological target: Dylight488-labeled GluA2 amino terminal domain; assay: AUC; FDS-SV, dilution series of Dylight488-GluA2 ATD, two different runs, global best-fit single component, single class of sites model (Figure 5A); dimer to monomers
[13] = biological target: Dylight488-labeled GluA2 amino terminal domain; assay: AUC; fluorescence-detected sedimentation velocity (FDS-SV), dilution series of labeled protein (Figure 3); 50,000 rpm, 20°C; 20 mM Na phosphate pH 7.5, 150 mM NaCl, 1 mM EDTA, 0.1 mg/mL BSA carrier; sw isotherm fitted with a monomer-dimer model; dimer to monomers

Sequence of GluA2 ATD ATD (P19491 22-400): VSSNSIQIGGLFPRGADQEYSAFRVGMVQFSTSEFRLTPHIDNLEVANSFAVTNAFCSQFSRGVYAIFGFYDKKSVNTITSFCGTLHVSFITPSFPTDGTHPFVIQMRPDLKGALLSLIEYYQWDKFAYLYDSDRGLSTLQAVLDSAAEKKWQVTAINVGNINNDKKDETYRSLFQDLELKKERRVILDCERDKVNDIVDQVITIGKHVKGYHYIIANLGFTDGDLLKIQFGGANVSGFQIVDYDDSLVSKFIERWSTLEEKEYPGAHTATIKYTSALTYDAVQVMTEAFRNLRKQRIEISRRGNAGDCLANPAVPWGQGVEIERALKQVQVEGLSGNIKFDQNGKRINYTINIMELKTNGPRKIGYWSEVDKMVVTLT

- Kd [1]: 2.6 nM
- Kd [2]: 4.7 nM
- Kd [3]: 3.1 nM
- Kd [4]: 4.6 nM
- Kd [5]: 2.3 nM
- stoichiometry N [5]: 2
- life-time of the donor/acceptor heterodimer, fast component [6]: 95 s
- life-time of the donor/acceptor heterodimer, slow component [6]: 723 s
- time constant of the decay, fast component (double exponential fit, trace shown) [6]: 98 s
- time constant of the decay, slow component (double exponential fit, trace shown) [6]: 640 s
- KD of the high-affinity population (three-component fit) [7]: 1.8 nM
- KD of the low-affinity population (three-component fit) [7]: 24000 nM
- Kd [7]: 6.3 nM
Substance: FAM (5,6-carboxyfluorescein)-labeled GluA2 amino terminal domain (domain or fragment)

- Kd [8]: 16.5 nM
- Kd [9]: 22 nM
- Kd [10]: 9 nM
Substance: GluA2 amino terminal domain (GluA2 ATD), unlabeled (domain or fragment)

Substance: GluA2 ATD ATD (from UniProt P19491)
- Kd [11]: 9.4 nM

- Kd [12]: 19.4 nM
- Kd [13]: 20.5 nM
- stoichiometry N [13]: 2
- half life of the donor/acceptor heterodimer (single-exponential decay) [6]: 2.72 min
- time constant of the decay (single exponential fit, trace shown) [6]: 169 s
Substance: Dylight488-labeled GluA2 amino terminal domain (domain or fragment)
